Assay results taken from patent publication US20230235058A1 (OXFORD UNIVERSITY INNOVATION, published 2023).

Key:
[1] = molecular target: T1, monomeric soluble human BTLA extracellular domain (BTLA K31-R151) (human, UniProt Q7Z6A9 31-151); assay: SPR 37C, mAb captured, BTLA ECD analyte;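 also: Anti-BTLA mouse antibodies captured on a sensor chip via polyclonal anti-mouse IgG, isotype control antibody in reference channel, rates fitted after reference and blank subtraction to derive Kd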
T1 construct: also called hBTLA; monomeric BTLA
Description: Mouse antibody capture kit (GE Healthcare) was used to coat a Series S CMS Sensor Chip (GE Healthcare) with polyclonal anti-mouse IgG. Anti-BTLA antibody was then captured onto the biosensor surface and a negative control antibody (clone Mopc21; Biolegend) captured in the reference channel. […] Association and dissociation rates were fitted using BiaEvaluation Software (GE Healthcare) after reference and blank subtractions, and dissociation constants were calculated (FIG. 1b).

[2] = molecular target: full length human BTLA expressed on cells (human, UniProt Q7Z6A9 31-289); assay: cell-based or functional assay
[3] = molecular target: chimeric BTLA of humanised-BTLA mice (human extracellular region, murine transmembrane and signaling … (human; mouse, UniProt Q7TSA3 184-306, limits assumed); assay: cell-based or functional assay
For AntiCD3/CD28 (CD4 T cell proliferation) repeat 1 in this document: test concentration or dose not given here.
For AntiCD3/CD28 (CD4 T cell proliferation) repeat 2 in this document: test concentration or dose not given here.
For AntiCD3/CD28 (CD69+ CD4 T cells) repeat 1 in this document: test concentration or dose not given here.
For T cell reporter (NFκB signaling) in this document: test concentration or dose not given here.

Sequence of chimeric BTLA of humanised-BTLA mice (human extracellular region, murine transmembrane and signaling … (Q7TSA3 other isoform, or with tags, fused parts or gaps mutant limits assumed): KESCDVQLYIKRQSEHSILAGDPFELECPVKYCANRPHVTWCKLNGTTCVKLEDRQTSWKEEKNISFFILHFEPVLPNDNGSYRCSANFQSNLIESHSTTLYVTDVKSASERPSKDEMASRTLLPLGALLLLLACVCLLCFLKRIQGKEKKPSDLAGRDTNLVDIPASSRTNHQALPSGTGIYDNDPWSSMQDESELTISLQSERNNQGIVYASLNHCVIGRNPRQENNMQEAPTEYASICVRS

B1: 4D5 (antibody, IgG1, V domains shown)
VH: QIQLVQSGPELKKPGETVKISCKASGYTFTTYGVSWVKQAPGKVLKWMGWINTYSGVPTYADDFKGRFAFSLETSASTAYLQISNLKNEDTATYFCAPVTTILHWYFDVWGTGTTVTVSS
VL: DIQMTQSPSSLSASLGERVSLTCRASQEISGYLSWLQQKPDGTIKRLIYAASTLDSGVPKRFRGSRSGSDYSLTISSLESEDFADYYCLQYASYPFTFGSGTKLEIK
notes: mIgG1
Kd [1]: 2930 nM
koff [1]: 0.79 s⁻¹
kon [1]: 270000 M⁻¹ s⁻¹

B2: 831 (antibody, IgG1, V domains shown)
VH: DVQLQESGPDLVKPSQSLSVTCTVTGYSITSGYSWHWIRQFPGNKLEWMGYIHYSGSTNYNPSLKSRISITRDTSKNQFFLQLSSVTTEDTATYYCASGPHRYDGVWFAYWGQGTLVTVSS
VL: EIVLTQSPTTMAASPGEKITITCSASSSISSNYLHWYQQKPGFSPKLLIYRTSNLASGVPARFSGSGSGTSYSLTIGTMEAEDVATYYCQQGTNIPLTFGAGTKLEIK
T cell reporter (NFκB signaling) [2]: 24 % inhibition
AntiCD3/CD28 (CD4 T cell proliferation) repeat 1 [3]: 10 % inhibition
AntiCD3/CD28 (CD4 T cell proliferation) repeat 2 [3]: 8 % inhibition
AntiCD3/CD28 (CD69+ CD4 T cells) repeat 1 [3]: 50 % inhibition
AntiCD3/CD28 (CD69+ CD4 T cells) repeat 2 [3]: 53 % inhibition
MLR (CD4 T cell proliferation) repeat 1 [3]: 25 % inhibition
MLR (CD4 T cell proliferation) repeat 2 [3]: 34 % inhibition

B3: 7A1 (antibody, IgG1, V domains shown)
VH: QVQLQQSGPELVKPGASVKISCKASGYAFSSSWMNWVKQRPGKGLEWIGRIYPGDGDTNYNGKFKGKATLTADKSSSTAYMQLSSLTSEDSAVYFCARRGYGYLAYWGQGTLVTVSA
VL: DIVMTQSHKFMSTSVGDRVSITCKASQDVSTAVAWYQQKPGQSPKLLIYSASYRYTGVPDRFTGSGSGTDFTFTISSVQAEDLAVYYCQQHYSTPWTFGGGTKLEIK
notes: mIgG1
T cell reporter (NFκB signaling) [2]: 20 % inhibition
AntiCD3/CD28 (CD4 T cell proliferation) repeat 1 [3]: 14 % inhibition
AntiCD3/CD28 (CD4 T cell proliferation) repeat 2 [3]: 17 % inhibition
AntiCD3/CD28 (CD69+ CD4 T cells) repeat 1 [3]: 28 % inhibition
AntiCD3/CD28 (CD69+ CD4 T cells) repeat 2 [3]: 38 % inhibition
MLR (CD4 T cell proliferation) repeat 1 [3]: 23 % inhibition
MLR (CD4 T cell proliferation) repeat 2 [3]: 29 % inhibition
Kd [1]: 40.2 nM
koff [1]: 0.0166 s⁻¹
kon [1]: 413000 M⁻¹ s⁻¹

B4: 15B6 (antibody, IgG1, V domains shown)
VH: QVQLQQPGAELVKPGASVKLSCKASGYTFTSYWMHWVKQRPGQGLEWIGMIHPNSGSTNYNEKFKSKATLTVDKSSSTAYMQLSSLTSEDSAVYYCARKRGGLGDYWGQGTSVTVSS
VL: DIVLTQSPASLAVSLGQRATISCRASKSVSTSGYSYMHWYQQKPGQPPKLLIYLASNLESGVPARFSGSGSGTDFTLNIHPVEEEDAATYYCQHSRELPYTFGGGTKLEIK
T cell reporter (NFκB signaling) [2]: 21 % inhibition
AntiCD3/CD28 (CD4 T cell proliferation) repeat 1 [3]: 9 % inhibition
AntiCD3/CD28 (CD4 T cell proliferation) repeat 2 [3]: 16 % inhibition
AntiCD3/CD28 (CD69+ CD4 T cells) repeat 1 [3]: 13 % inhibition
AntiCD3/CD28 (CD69+ CD4 T cells) repeat 2 [3]: 20 % inhibition
MLR (CD4 T cell proliferation) repeat 1 [3]: 7 % inhibition
MLR (CD4 T cell proliferation) repeat 2 [3]: 13 % inhibition

B5: 4H4 (antibody, IgG1, V domains shown)
VH: QVQLQQSGAELARPGASVKLSCKASGYTFTSYGISWVKQRTGQGLEWIGEIYPRSGNTYYNEKFKGKATLTADKSSSTAYMELRSLTSEDSAVYFCARRRGAGDGFDYWGQGTTLTVSS
VL: DIQMTQTTSSLSASLGDRVTISCSASQGISNYLNWYQQKPDGTVKLLIYYTSSLHSGVPSRFSGSGSGTDYSLTISNLEPEDIATYYCQQYSKLPFTFGSGTKLEIK
notes: mIgG1
T cell reporter (NFκB signaling) [2]: 25 % inhibition
AntiCD3/CD28 (CD4 T cell proliferation) repeat 1 [3]: 14 % inhibition
AntiCD3/CD28 (CD4 T cell proliferation) repeat 2 [3]: 22 % inhibition
AntiCD3/CD28 (CD69+ CD4 T cells) repeat 1 [3]: 43 % inhibition
AntiCD3/CD28 (CD69+ CD4 T cells) repeat 2 [3]: 52 % inhibition
MLR (CD4 T cell proliferation) repeat 1 [3]: 10 % inhibition
MLR (CD4 T cell proliferation) repeat 2 [3]: 17 % inhibition
Kd [1]: 1710 nM
koff [1]: 0.347 s⁻¹
kon [1]: 203000 M⁻¹ s⁻¹

B6: 10B1 (antibody, IgG1, V domains shown)
VH: QVQLQQSGAELARPGASVKLSCKASGYTFTSYGISWVKQRTGQGLEWIGEIYPRSGNTYYNEKFKGKATLTADKSSSTAYMELRSLTSEDSAVYFCARNYGSSYPFAYWGQGTLVTVSA
VL: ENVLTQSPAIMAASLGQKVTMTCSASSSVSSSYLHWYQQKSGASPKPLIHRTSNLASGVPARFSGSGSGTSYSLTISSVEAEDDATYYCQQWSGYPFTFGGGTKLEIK
T cell reporter (NFκB signaling) [2]: 27 % inhibition
AntiCD3/CD28 (CD4 T cell proliferation) repeat 1 [3]: 8 % inhibition
AntiCD3/CD28 (CD4 T cell proliferation) repeat 2 [3]: 14 % inhibition
AntiCD3/CD28 (CD69+ CD4 T cells) repeat 1 [3]: 24 % inhibition
AntiCD3/CD28 (CD69+ CD4 T cells) repeat 2 [3]: 36 % inhibition
MLR (CD4 T cell proliferation) repeat 1 [3]: 16 % inhibition
MLR (CD4 T cell proliferation) repeat 2 [3]: 25 % inhibition

B7: 4B1 (antibody, IgG1, V domains shown)
VH: QVQLQQSGAELARPGASVRLSCKASGYTFTSYGLIWLKQRTGQGLEWIGEIYPRSGSTYYNEWFKGKATLTADKSSNTAFMELRSLTSEDSAVYFCARRRGTGDGFDYWGQGTILTVSS
VL: DIQMTQTTSSLSASLGDRVTISCSASQGISNYLNWYQQKPDGTVKLLIYYTSSLHSGVPSRFSGSGSGTDYSLTISNLEPEDIATYYCQQYIELPFTFGSGTKLEIK
notes: mIgG1
T cell reporter (NFκB signaling) [2]: 23 % inhibition
AntiCD3/CD28 (CD4 T cell proliferation) repeat 1 [3]: 14 % inhibition
AntiCD3/CD28 (CD4 T cell proliferation) repeat 2 [3]: 18 % inhibition
AntiCD3/CD28 (CD69+ CD4 T cells) repeat 1 [3]: 47 % inhibition
AntiCD3/CD28 (CD69+ CD4 T cells) repeat 2 [3]: 41 % inhibition
MLR (CD4 T cell proliferation) repeat 1 [3]: 33 % inhibition
MLR (CD4 T cell proliferation) repeat 2 [3]: 30 % inhibition
Kd [1]: 3.21 nM
koff [1]: 0.00185 s⁻¹
kon [1]: 577000 M⁻¹ s⁻¹

B8: 8B4 (antibody, IgG1, V domains shown)
VH: QVQLQQSGAELARPGASVKLPCKASGYTFTSYGISWVKQRTGQGLEWIGEIYPRSGTTYYNEKFKGKATLTADKSSSTAYMELRSLTSEDSAVYFCARRISSGSGVDYWGQGTTLTVSS
VL: DIQMTQTTSSLSASLGDRVTISCSASQGISNYLNWYQQKPDGTVKLLIYYTSSLHSGVPSRFSGSGSGTDYSLTISNLEPEDIATYYCQQYSELPWTFGGGTKLEIK
notes: mIgG1
T cell reporter (NFκB signaling) [2]: 24 % inhibition
AntiCD3/CD28 (CD4 T cell proliferation) repeat 1 [3]: 20 % inhibition
AntiCD3/CD28 (CD4 T cell proliferation) repeat 2 [3]: 4 % inhibition
AntiCD3/CD28 (CD69+ CD4 T cells) repeat 1 [3]: 51 % inhibition
AntiCD3/CD28 (CD69+ CD4 T cells) repeat 2 [3]: 47 % inhibition
MLR (CD4 T cell proliferation) repeat 1 [3]: 33 % inhibition
MLR (CD4 T cell proliferation) repeat 2 [3]: 23 % inhibition
Kd [1]: 8.17 nM
koff [1]: 0.0044 s⁻¹
kon [1]: 538000 M⁻¹ s⁻¹

B9: 16E1 (antibody, IgG1, V domains shown)
VH: QVQLQQSGAELARPGASVKLSCKASGYTFTSYGISWVKQRTGQGLEWIGEIYPRSGNTYYNEKFKGKATLTADKSSSTAYMELRSLTSEDSAVYFCARGYGSSYGFAYWGQGTLVTVSA
VL: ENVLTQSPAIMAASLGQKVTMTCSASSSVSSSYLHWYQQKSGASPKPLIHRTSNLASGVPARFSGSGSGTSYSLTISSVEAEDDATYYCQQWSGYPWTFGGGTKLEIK
T cell reporter (NFκB signaling) [2]: 22 % inhibition
AntiCD3/CD28 (CD4 T cell proliferation) repeat 1 [3]: 4 % inhibition
AntiCD3/CD28 (CD4 T cell proliferation) repeat 2 [3]: 8 % inhibition
AntiCD3/CD28 (CD69+ CD4 T cells) repeat 1 [3]: 9 % inhibition
AntiCD3/CD28 (CD69+ CD4 T cells) repeat 2 [3]: 23 % inhibition
MLR (CD4 T cell proliferation) repeat 1 [3]: 33 % inhibition
MLR (CD4 T cell proliferation) repeat 2 [3]: 8 % inhibition

B10: 16F10 (antibody, IgG1, V domains shown)
VH: DVQLQESGPGLVKPSQSLSLTCSVTGYSITSGYYWNWIRQFPGNKLEWMGYISYDGSNNYNPSLKNRISITRDTSKNQFFLKLNSVTTEDTATYYCASIYGNYYAMDYWGQGTSVTVSS
VL: QIVLTQSPAIMSASPGEKVTMTCSASSSVSYMHWYQQKSGTSPKRWIYDTSKLASGVPARFSGSGSGTSYSLTISSMEAEDAATYYCQQWSSNPPTFGSGTKLEIK
notes: mIgG1
Kd [1]: 48.8 nM
koff [1]: 0.0283 s⁻¹
kon [1]: 581000 M⁻¹ s⁻¹

B11: 11.5.1 D265A (antibody, V domains shown)
VH: EVQLQESGPSLVKPSQTLSLTCSVTGDSITSAYWNWIRKFPGNKLEYMGYISYSGSTYFNPSLKSRISITRNTSKNQYYLQLNSVTTEDTATYYCARSHYYGYYFDYWGHGTTLTVSS
VL: DIVLTQSPASLAVSLGQRATISCRASETIDSYGDSLMHWYQQKAGQPPKLLIYRASNLESGIPARFSGSGSRTDFTLTINPVEADDVATYYCQQTDEDPYTFGGGTKLEIK
T cell reporter (NFκB signaling) [2]: -13 % inhibition
AntiCD3/CD28 (CD4 T cell proliferation) repeat 1 [3]: -3 % inhibition
AntiCD3/CD28 (CD4 T cell proliferation) repeat 2 [3]: -9 % inhibition
AntiCD3/CD28 (CD69+ CD4 T cells) repeat 1 [3]: -47 % inhibition
AntiCD3/CD28 (CD69+ CD4 T cells) repeat 2 [3]: -26 % inhibition
MLR (CD4 T cell proliferation) repeat 1 [3]: -3 % inhibition
MLR (CD4 T cell proliferation) repeat 2 [3]: 1 % inhibition

B12: 21C7 (antibody, IgG1, V domains shown)
VH: QIQLQQSGPELVKPGASVKISCKASGYAFSSSWMNWVKKRPGKGLEWIGRIYPGDGDANYNGKFKGKATLTADKSSSTAYMQLSSLTSEDSAVYFCAGEGHYYGSGYRWYLDVWGTGTTVTVSS
VL: DIQMTQSPASLSVSVGETVTITCRASENIYSNLAWYQQKQGKSPQLLVYAATNLADGVPSRFSGSGSGTQYSLKINSLQSEDFGSYYCQHFRGAPFTFGSGTKLEIK
notes: mIgG1
T cell reporter (NFκB signaling) [2]: 23 % inhibition
AntiCD3/CD28 (CD4 T cell proliferation) repeat 1 [3]: 10 % inhibition
AntiCD3/CD28 (CD4 T cell proliferation) repeat 2 [3]: -4 % inhibition
AntiCD3/CD28 (CD69+ CD4 T cells) repeat 1 [3]: 39 % inhibition
AntiCD3/CD28 (CD69+ CD4 T cells) repeat 2 [3]: 35 % inhibition
MLR (CD4 T cell proliferation) repeat 1 [3]: 8 % inhibition
MLR (CD4 T cell proliferation) repeat 2 [3]: 17 % inhibition
Kd [1]: 43.6 nM
koff [1]: 0.0406 s⁻¹
kon [1]: 930000 M⁻¹ s⁻¹
